Data taken from article PMC11772769 (2024).

B1: MBP-SNX17 (full-length, wild-type) [not stated] / Peptide LRP1_(14mer) [modified: 5-FAM (5-carboxyfluorescein) on the N-terminus; 5-FAM (5-carboxyfluorescein) on the N-terminus] [not stated] (parent complex)
chain 1: MHFSIPETESRSGDSGGSAYVAYNIHVNGVLHCRVRYSQLLGLHEQLRKEYGANVLPAFPPKKLFSLTPAEVEQRREQLEKYMQAVRQDPLLGSSETFNSFLRRAQQETQQVPTEEVSLEVLLSNGQKVLVNVLTSDQTEDVLEAVAAKLDLPDDLIGYFSLFLVREKEDGAFSFVRKLQEFELPYVSVTSLRSQEYKIVLRKSYWDSAYDDDVMENRVGLNLLYAQTVSDIERGWILVTKEQHRQLKSLQEKVSKKEFLRLAQTLRHYGYLRFDACVADFPEKDCPVVVSAGNSELSLQLRLPGQQLREGSFRVTRMRCWRVTSSVPLPSGSTSSPGRGRGEVRLELAFEYLMSKDRLQWVTITSPQAIMMSICLQSMVDELMVKKSGGSIRKMLRRRVGGTLRRSDSQQAVKSPPLLESPDATRESMVKLSSKLSAVSLRGIGSPSTDASASDVHGNFAFEGIGDEDL
chain 2: MNVEIGNPTYKMYE

Variants of: B1
Assay: fluorescence anisotropy; 5-FAM-labeled LRP1 14-mer peptide

| Variant | Kd [nM] |
| --- | --- |
| chain 1 N459A, chain 1 F462A | 1500 |
| chain 1 H457A | 3800 |
